The source of these data is patent publication US20240209078A1.

In assay [1] the target is human MSLN (mesothelin) (human) (UniProt Q13421). The assay can be described thus: cell-based or functional assay.
For assay [2] the target is unchanged. The assay can be described thus: cell-based or functional assay. This is another data set of the same source.

Read-outs that look alike come from different tables or passages of the source.

B1: CH3 15-E11 CC×I2L×G4×scFc×G4×MS 15-B12 CC×I2L_GQ (SEQ ID NO 251) (bispecific antibody)
chain: QVQLVQSGAEVKKPGASVKVSCKASGYTFTNYWMNWVRQAPGQCLEWMGNIAYGVKGTNYNQKFQGRVTMTVDTSSSTAYMELSRLRSDDTAVYYCATRYFYVMDYWGQGTLVTVSSGGGGQGGGGQGGGGQDIQMTQSPSSLSASVGDRVTITCRASQDISNYLNWYQQKPGKVPKLLIYYTSRLHSGVPSRFSGSGSGTDFTLTISSLQPEDVATYYCVQYAQFPLTFGCGTKVEIKSGGGGQEVQLVESGGGLVQPGGSLKLSCAASGFTFNKYAMNWVRQAPGKGMEWVARIRSKYNNYATYYADAVKDRFTISRDDSKNTLYLQMNNLKTEDTAVYYCVRAGNFGSSYISYFAYWGQGTLVTVSSGGGGQGGGGQGGGGQQTVVTQEPSLTVSPGGTVTITCGSSTGAVTSGNYPNWIQKKPGQAPRGLIGGTKFLAPGTPARFSGSLEGGKAALTLSGVQPEDEAEYYCVLYYSNRWVFGSGTKLTVLGGGGCPPCPAPELLGGPSVFLFPPKPKDTLMISRTPEVTCVVVDVSHEEPEVKFNWYVDGVEVHNAKTKPCEEQYGSTYRCVSVLTVLHQDWLNGKEYKCKVSNKALPAPIEKTISKAKGQPREPQVYTLPPSREEMTKNQVSLTCLVKGFYPSDIAVEWESNGQPENNYKTTPPVLDSDGSFFLYSKLTVDKSRWQQGNVFSCSVMHEALHNHYTQKSLSLSPGKGGGGQGGGGQGGGGQGGGGQGGGGQGGGGQCPPCPAPELLGGPSVFLFPPKPKDTLMISRTPEVTCVVVDVSHEEPEVKFNWYVDGVEVHNAKTKPCEEQYGSTYRCVSVLTVLHQDWLNGKEYKCKVSNKALPAPIEKTISKAKGQPREPQVYTLPPSREEMTKNQVSLTCLVKGFYPSDIAVEWESNGQPENNYKTTPPVLDSDGSFFLYSKLTVDKSRWQQGNVFSCSVMHEALHNHYTQKSLSLSPGKGGGGQVQLQESGPGLVKPSETLSLTCTVSGGSISSSSYFWGWIRQPPGKCLEWIGNIYYSGSSNYNPSLKSRVTISVDTSKNQFSLKLSSVTAADTAVYYCARLPRGDRDAFDIWGQGTMVTVSSGGGGQGGGGQGGGGQDIVMTQSPSSLSASVGDRVTITCRASQGISNYLAWYQQKPGKVPKLLIYAASTLQSGVPSRFSGSGSGTDFTLTISSLQPEDFATYYCQQSYSTPFTFGCGTKVEIKSGGGGQEVQLVESGGGLVQPGGSLKLSCAASGFTFNKYAMNWVRQAPGKGMEWVARIRSKYNNYATYYADAVKDRFTISRDDSKNTLYLQMNNLKTEDTAVYYCVRAGNFGSSYISYFAYWGQGTLVTVSSGGGGQGGGGQGGGGQQTVVTQEPSLTVSPGGTVTITCGSSTGAVTSGNYPNWIQKKPGQAPRGLIGGTKFLAPGTPARFSGSLEGGKAALTLSGVQPEDEAEYYCVLYYSNRWVFGSGTKLTVL
Turning to B1, in assay [1], the cytotoxicity EC50, GSU KO CDH3 cells amounted to 512 pM. Moreover, in assay [2], the cytotoxicity EC50, E:T ratio 1:1, GSU KO CDH3 cells turned out to be 108 pM; the cytotoxicity EC50, E:T ratio 1:2, GSU KO CDH3 cells is 446 pM; the cytotoxicity EC50, E:T ratio 10:1, GSU KO CDH3 cells amounted to 39.6 pM; the cytotoxicity EC50, GSU KO CDH3 cells amounted to 512 pM. Also, the cytotoxicity EC50, HCT 116 KO CDH3 cells in assay [2] is 51.8 pM.
